{"source": "paper PMC8126939", "about": "“The TBC1D31/praja2 complex controls primary ciliogenesis through PKA‐directed OFD1 ubiquitylation” (The EMBO Journal, 2021)", "parents": {"B1": {"name": "peptide of the C-terminus segment of TBC1D31 [human] / GST-praja2_(530–570) [modified: fluorescent dye on primary amines (NHS-ester labelling); fluorescent dye on primary amines (NHS-ester labelling)] [human] (parent complex)", "chain 1": "WDTTGQNLIKKVRNLRQRLTARARHRCQTPHLLAA", "chain 2": "LDGNNNLEDDSSVSEDLDVDWSLFDGFADGLGVAEAISYVD"}}}
{"variants_of": "B1", "assay": "microscale thermophoresis (MST); parent: 3.7e+04 nM", "units": {"Kd": "µM"}}
{"variant": "chain 1 WDTTGQNLIKKVANLAQRLTARARHRCQTPHLLAA", "Kd": "~65"}
